Experimental data from patent US20110217237A1 (AbbVie / Abbott, published 2011).
Where two headings read alike, the source gives them in different places.

Key:
[1] = biological target: T1, human DLL4, full length, on cells (human, UniProt Q9NR61 27-685); assay: cell-based or functional assay
[2] = biological target: T2, mouse DLL4 on cells (mouse, UniProt Q9JI71 27-686); assay: FACS, DLL4 cells
T2 construct: whole, on cells; also called mouse DLL4-293G; mu DLL4 cells

[3] = biological target: T1, human DLL4, full length, on cells; assay: FACS, DLL4 cells
[4] = biological target: T3, mouse DLL4 extracellular domain (mouse, UniProt Q9JI71 27-532); assay: SPR (Biacore)
T3 construct: extracellular domain; also called muDLL4 ECD; murine DLL4
Description: (§1) The BIACORE® surface plasmon resonance assay (Biacore, Inc., Piscataway, N.J., US) determines the affinity of antibodies with kinetic measurements of on-rate and off-rate constants. Binding of DLL4 antibodies to a purified recombinant DLL4 extracellular domain (ECD) was determined by surface plasmon resonance-based measurements with a Biacore® instrument (either a Biacore 2000, Biacore 3000, or Biacore T100; GE Healthcare, Piscataway, N.J., US) using running buffer HBS-EPB (10 mM HEPES [pH 7.4], 150 mM NaCl, 3 mM EDTA, 0.1 mg/ml BSA and 0.005% surfactant P20) at 25° C. For example, approximately 9000 RU of goat anti-human Fc specific polyclonal antibody (Thermo Fisher Scientific Inc., Rockford, Ill., US) diluted in 10 mM sodium acetate (pH 4.5) is directly immobilized across a CMS research grade biosensor chip using a standard amine coupling kit according to manufacturer's instructions and procedures at 25 μg/ml. Unreacted moieties on the biosensor surface were blocked with ethanolamine. For kinetic analysis, rate equations derived from the 1:1 Langmuir binding model were fitted simultaneously to multiple antigen injections (using global fit analysis) with the use of Scrubber 2 (BioLogic Software), Biacore Biaevaluation 4.0.1 software or Biacore T100 Evaluation software. Purified antibodies were diluted in running buffer for capture across goat anti-human Fc reaction surfaces. Antibodies to be captured as a ligand (1 μg/ml) were injected over reaction matrices at a flow rate of 10 μl/min. During the assay, all measurements were referenced against the capture surface alone (i.e., with no captured anti-DLL4 antibody). […] The equilibrium dissociation constant KD (M) of the reaction between antibodies and the target antigen was then calculated from the kinetic rate constants by the following formula: KD=Koff/Kₒₙ. Binding was recorded as a function of time and kinetic rate constants were calculated.

[5] = biological target: T4, human DLL4 extracellular domain (human, UniProt Q9NR61 27-529); assay: SPR (Biacore)
T4 construct: purified recombinant ECD; biotin-labelled or 6xHis-tagged depending on the assay; also called huDLL4 ECD; hu DLL4 ECD
Description: as §1

[6] = biological target: T3, mouse DLL4 extracellular domain; assay: competition ELISA vs Notch-1
Description: (§2) Plates were then washed 3 times with wash buffer (PBS, 0.05% Tween-20) and blocked with 200 μl/well blocking buffer (D-PBS, 1% BSA, 1 mM CaCl₂, 0.05% Tween-20) for 1 hour at 25° C. While blocking, biotin labeled DLL4 extracellular domain (14 nM) was mixed with antibody (30 pM-66 nM, 3-fold serial dilution in blocking buffer) for 1 hour at 25° C. with shaking. Assay plates were washed after blocking, and incubated with DLL4/antibody mixtures (100 μl/well, 1 hour at 25° C. with shaking). Plates were washed again and 100 μl/well streptavidin conjugated with HRP (Fitzgerald #65R-S104PHRPx, diluted 1:5,000 in blocking buffer) was added for 1 hour at 25° C. with shaking. After a final wash, plates were developed using 100 μl/well substrate (TMB Sigma #T8665), and the reaction was stopped using 100 μl/well 1N HCl, and the absorbance was read at 450 nm. Data were analyzed using Graphpad Prism software and IC₅₀ values were reported as the concentration of antibody to achieve 50% reduction of DLL4 bound to Notch1.
(§3) Purified variants were further characterized for their affinities for human, murine and cynomolgus DLL4 by binding ELISA (Example 1.2, Method 2), by Biacore (Example 1.1), and by Flow Cytometry (FACS). […] The humanized variants were then tested for their functionality with human and murine DLL4 by competition ELISA (Example 1.3) and by Notch reporter assay (Example 1.6).

[7] = biological target: T4, human DLL4 extracellular domain; assay: competition ELISA vs Notch-1
Description: as §2, §3

[8] = biological target: T3, mouse DLL4 extracellular domain; assay: binding ELISA
Description: (§4) Plates were then washed 3 times. 100 μl/well of recombinant rat/human chimeric or recombinant human anti-DLL4 antibodies were then added to the plate (0.00164-27 nM, 4-fold serial dilution in ELISA buffer=PBST, 10% Superblock (Pierce #37515)) for 1 hour at 25° C. with shaking and then washed again 3 times. Plates were incubated with goat anti-human HRP (Pierce #31412) (1:40,000 dilution in ELISA buffer, 100 μl/well) for 1 hour at 25° C. with shaking, then washed 3 times. After the final wash, plates were incubated with 100 μl/well ELISA substrate (Sigma #T8665). The reaction was stopped after 8 minutes at 25° C. with 100 μl/well 1N HCl and the absorbance was read at 450 nm. Data were analyzed using Graphpad Prism software, and EC50 values were reported.
as §3

[9] = biological target: T5, cynomolgus monkey DLL4 extracellular domain (cynomolgus monkey); assay: binding ELISA
T5 construct: extracellular domain; also called cynoDLL4 ECD; Cyno DLL4
Description: as §4, §3

[10] = biological target: T4, human DLL4 extracellular domain; assay: binding ELISA
Description: as §4, §3

[11] = biological target: T3, mouse DLL4 extracellular domain; assay: SPR (Biacore); remark: listed apart in the source
Description: as §1

[12] = biological target: T6, rat DLL4 extracellular domain (rat, UniProt D3ZHH1 28-530); assay: SPR (Biacore)
T6 construct: extracellular domain; also called ratDLL4 ECD
Description: as §1

[13] = biological target: T2, mouse DLL4 on cells; assay: cell-based or functional assay
[14] = biological target: T1, human DLL4, full length, on cells; assay: cell-based or functional assay; remark: listed apart in the source
[15] = biological target: T2, mouse DLL4 on cells; assay: FACS, direct binding to DLL4 cells
Description: (§5) Stable cell lines overexpressing cell-surface DLL4 were harvested from tissue culture flasks, washed four times and resuspended in phosphate buffered saline (PBS) containing 1% bovine serum albumin and 1 mM CaCl₂ (FACS buffer). 1.5×10⁵ cells were incubated with antibodies at various concentrations in FACS buffer for 60 minutes on ice. […] Following an incubation on ice (4° C., 60 minutes), cells were washed three times and resuspended in FACS buffer. Fluorescence was measured using a Becton Dickinson FACSCalibur-HTS (Becton Dickinson, San Jose, Calif., US). Data were analyzed using Graphpad Prism software and EC₅₀ values were reported as the concentration of antibody to achieve 50% of maximal DLL4 antibodies binding to DLL4 expressing cells.
(§6) The hu1A11.1 affinity matured clones (Table 22) were expressed, purified, and further characterized in vitro. Their activities of binding to cell-bound DLL4 and inhibiting cell-bound DLL4-induced Notch activation were further examined using methods described in Examples 1.3 and 1.6, and are summarized in Table 26 (below).

[16] = biological target: T1, human DLL4, full length, on cells; assay: FACS, direct binding to DLL4 cells
Description: as §5, §6

[17] = biological target: T5, cynomolgus monkey DLL4 extracellular …; assay: SPR (Biacore)
Description: as §1

[18] = biological target: T4, human DLL4 extracellular domain; assay: SPR (Biacore); remark: listed apart in the source
Description: as §1

T3 sequence (Q9JI71 27-532): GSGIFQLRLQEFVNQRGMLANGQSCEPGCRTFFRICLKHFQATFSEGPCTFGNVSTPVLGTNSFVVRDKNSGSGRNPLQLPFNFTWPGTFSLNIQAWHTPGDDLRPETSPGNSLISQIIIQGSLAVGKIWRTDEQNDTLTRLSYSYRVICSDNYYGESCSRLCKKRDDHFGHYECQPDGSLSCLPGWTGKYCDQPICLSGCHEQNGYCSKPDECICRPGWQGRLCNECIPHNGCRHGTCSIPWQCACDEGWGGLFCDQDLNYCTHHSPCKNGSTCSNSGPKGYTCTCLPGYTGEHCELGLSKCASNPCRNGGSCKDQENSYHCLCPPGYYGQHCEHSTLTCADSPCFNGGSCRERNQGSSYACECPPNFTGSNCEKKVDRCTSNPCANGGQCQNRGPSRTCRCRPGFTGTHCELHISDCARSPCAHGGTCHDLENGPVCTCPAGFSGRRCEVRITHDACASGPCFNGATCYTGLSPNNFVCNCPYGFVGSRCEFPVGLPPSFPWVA
T6 sequence (D3ZHH1 28-530): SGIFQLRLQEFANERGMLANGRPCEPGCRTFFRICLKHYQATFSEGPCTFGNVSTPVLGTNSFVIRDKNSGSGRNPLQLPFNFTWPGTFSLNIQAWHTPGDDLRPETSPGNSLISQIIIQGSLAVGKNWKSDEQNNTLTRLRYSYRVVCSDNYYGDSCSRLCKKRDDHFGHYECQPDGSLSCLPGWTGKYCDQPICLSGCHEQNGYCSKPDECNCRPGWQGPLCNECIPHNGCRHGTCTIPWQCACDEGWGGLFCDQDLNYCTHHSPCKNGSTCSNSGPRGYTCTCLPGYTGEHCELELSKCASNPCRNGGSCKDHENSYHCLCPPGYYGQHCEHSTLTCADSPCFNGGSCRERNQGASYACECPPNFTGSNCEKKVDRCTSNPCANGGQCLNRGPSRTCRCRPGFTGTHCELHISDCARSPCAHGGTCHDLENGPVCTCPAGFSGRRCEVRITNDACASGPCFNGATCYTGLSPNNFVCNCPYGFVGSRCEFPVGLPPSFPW
T4 sequence (Q9NR61 27-529 limits assumed): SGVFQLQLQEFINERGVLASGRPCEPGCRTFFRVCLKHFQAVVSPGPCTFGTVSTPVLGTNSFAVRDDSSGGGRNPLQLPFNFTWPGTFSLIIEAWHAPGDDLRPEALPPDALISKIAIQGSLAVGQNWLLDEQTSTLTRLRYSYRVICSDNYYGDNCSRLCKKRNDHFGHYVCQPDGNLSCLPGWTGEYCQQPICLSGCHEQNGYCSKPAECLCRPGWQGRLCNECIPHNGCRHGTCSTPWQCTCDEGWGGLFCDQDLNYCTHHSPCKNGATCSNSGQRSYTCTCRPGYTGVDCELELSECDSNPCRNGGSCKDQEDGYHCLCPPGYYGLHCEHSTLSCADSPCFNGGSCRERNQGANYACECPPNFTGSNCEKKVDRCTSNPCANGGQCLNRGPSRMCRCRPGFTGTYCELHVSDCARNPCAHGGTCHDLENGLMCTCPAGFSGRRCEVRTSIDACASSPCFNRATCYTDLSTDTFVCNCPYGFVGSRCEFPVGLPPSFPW
T2 sequence (Q9JI71 27-686): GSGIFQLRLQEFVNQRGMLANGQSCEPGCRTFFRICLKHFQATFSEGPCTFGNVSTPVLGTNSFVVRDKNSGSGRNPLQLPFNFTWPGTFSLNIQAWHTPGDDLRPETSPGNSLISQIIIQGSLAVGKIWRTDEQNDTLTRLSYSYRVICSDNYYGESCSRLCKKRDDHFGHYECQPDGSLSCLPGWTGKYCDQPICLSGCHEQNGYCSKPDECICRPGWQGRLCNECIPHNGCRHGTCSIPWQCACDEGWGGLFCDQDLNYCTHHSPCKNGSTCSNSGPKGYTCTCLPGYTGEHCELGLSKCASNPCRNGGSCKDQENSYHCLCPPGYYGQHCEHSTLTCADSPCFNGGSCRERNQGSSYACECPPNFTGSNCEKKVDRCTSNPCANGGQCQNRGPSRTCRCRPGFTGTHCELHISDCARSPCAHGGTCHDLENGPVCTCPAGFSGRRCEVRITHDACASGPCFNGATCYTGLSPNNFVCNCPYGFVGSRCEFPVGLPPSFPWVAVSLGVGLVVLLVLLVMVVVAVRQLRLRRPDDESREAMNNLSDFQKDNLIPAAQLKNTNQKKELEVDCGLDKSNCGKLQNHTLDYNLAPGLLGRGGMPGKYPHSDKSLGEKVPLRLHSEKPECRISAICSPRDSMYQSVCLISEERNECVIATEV
T1 sequence (Q9NR61 27-685 limits assumed): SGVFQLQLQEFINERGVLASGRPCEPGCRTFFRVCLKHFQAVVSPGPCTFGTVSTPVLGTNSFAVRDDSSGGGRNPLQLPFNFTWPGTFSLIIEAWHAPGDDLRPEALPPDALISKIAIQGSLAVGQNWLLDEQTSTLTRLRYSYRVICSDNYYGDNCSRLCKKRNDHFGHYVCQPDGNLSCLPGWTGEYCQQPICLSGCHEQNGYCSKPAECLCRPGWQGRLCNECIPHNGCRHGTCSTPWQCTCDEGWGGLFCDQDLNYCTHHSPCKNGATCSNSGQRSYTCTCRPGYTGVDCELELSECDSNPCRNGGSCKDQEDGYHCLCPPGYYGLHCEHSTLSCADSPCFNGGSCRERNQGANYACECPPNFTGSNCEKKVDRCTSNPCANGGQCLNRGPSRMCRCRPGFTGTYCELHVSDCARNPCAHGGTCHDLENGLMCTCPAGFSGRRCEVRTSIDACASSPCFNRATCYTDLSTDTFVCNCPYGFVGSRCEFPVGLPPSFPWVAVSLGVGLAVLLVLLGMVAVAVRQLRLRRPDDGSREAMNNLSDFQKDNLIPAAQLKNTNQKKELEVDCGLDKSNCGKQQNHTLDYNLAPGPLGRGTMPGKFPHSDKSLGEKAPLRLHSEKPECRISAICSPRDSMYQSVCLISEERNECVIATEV

Row | Binder | Reporter Assay (EC50, nM) [1] [nM] | EC50 [2] [nM] | EC50 [3] [nM] | Kd [4] [nM] | Kd [5] [nM] | IC50 [6] [nM] | IC50 [7] [nM] | EC50 [8] [nM] | EC50 [9] [nM] | EC50 [10] [nM] | other results
1 | h1A11.2 (antibody, V domains shown, humanized IgG; also called VH.1/VL.1a 1A11) VH: EVQLVESGGGLVQPGGSLRLSCAASGFTFSNFPMAWVRQAPGKGLEWVATISSSDGTTYYRDSVKGRFTISRDNAKNSLYLQMNSLRAEDTAVYYCARGYYNSPFAYWGQGTLVTVSS VL: DIQMTQSPSSLSASVGDRVTITCRASEDIYSNLAWYQQKPGKSPKLLIFDTNNLADGVPSRFSGSGSGTDSTLTISSLQPEDFATYFCQQYNNYPPTFGQGTKLEIKR | 3.92 | 0.21 | 2.85 | 19 | 10 | 0.9 | 0.3 | 0.09 | 0.13 | 0.08 | –
2 | h1A11.H2 (antibody, V domains shown, also called h1A11.H2 VH / h1A11.E12 VL) VH: EVQLVESGGGLVQPGGSLRLSCAASGFTFGNFPMSWVRQAPGKGLEWVASISSSDSWATIGDSVKGRFTISRDNAKNSLYLQMNSLRAEDTAVYYCARGYYNSPFAFWGQGTLVTVSS VL: DIQMTQSPSSLSASVGDRVTITCRASQEIYRNLAWYQQKPGKSPKLLIFDTSVLADGVPSRFSGSGSGTDSTLTISSLQPEDFATYYCQQYTYYPPTFGQGTKLEIK | – | – | – | – | – | – | – | – | – | – | Kd [11]: 0.33 nM; koff [11]: 5.07e-05 s⁻¹; kon [11]: 154000 M⁻¹ s⁻¹; Kd [12]: 16 nM; koff [12]: 0.00283 s⁻¹; kon [12]: 178000 M⁻¹ s⁻¹; Inhibition of Notch Activation via DLL4 cells, Notch reporter assay [13]: 0.586 nM; Inhibition of Notch Activation via DLL4 cells, Notch reporter assay [14]: 0.856 nM; EC50 [15]: 0.42 nM; EC50 [16]: 1.98 nM; Kd [17]: 0.35 nM; koff [17]: 4.6e-05 s⁻¹; kon [17]: 131000 M⁻¹ s⁻¹; Kd [18]: 0.27 nM; koff [18]: 3.85e-05 s⁻¹; kon [18]: 143000 M⁻¹ s⁻¹
3 | h1A11.7 (antibody, V domains shown, humanized IgG; also called VH.1a/VL.1b 1A11) VH: EVQLVESGGGLVQPGGSLRLSCAASGFTFSNFPMAWVRQAPGKGLEWVATISSSDGTTYYRDSVKGRFTISRDNAKSSLYLQMNSLRAEDTAVYYCSRGYYNSPFAYWGQGTLVTVSS VL: DIQMTQSPSSLSASVGDRVTITCRASEDIYSNLAWYQQKPGKAPKLLIFDTNNLADGVPSRFSGSGSGTDFTLTISSLQPEDFATYYCQQYNNYPPTFGQGTKLEIKR | 4.84 | 0.18 | 3.71 | 35 | 13 | 0.9 | 0.5 | 0.09 | 0.14 | 0.06 | –

Continued by falling EC50 [2], values first:

Row | Reporter Assay (EC50, nM) [1] [nM] | EC50 [2] [nM] | EC50 [3] [nM] | Kd [4] [nM] | Kd [5] [nM] | IC50 [6] [nM] | IC50 [7] [nM] | EC50 [8] [nM] | EC50 [9] [nM] | EC50 [10] [nM] | Binder | other results
4 | 3.8 | 0.21 | 3.61 | 22 | 9.6 | 0.8 | 0.3 | 0.08 | 0.16 | 0.07 | h1A11.5 (antibody, V domains shown, humanized IgG; also called VH.1a/VL.1 1A11) VH: EVQLVESGGGLVQPGGSLRLSCAASGFTFSNFPMAWVRQAPGKGLEWVATISSSDGTTYYRDSVKGRFTISRDNAKSSLYLQMNSLRAEDTAVYYCSRGYYNSPFAYWGQGTLVTVSS VL: DIQMTQSPSSLSASVGDRVTITCRASEDIYSNLAWYQQKPGKAPKLLIYDTNNLADGVPSRFSGSGSGTDFTLTISSLQPEDFATYYCQQYNNYPPTFGQGTKLEIKR | –
5 | 3.18 | 0.18 | 3.28 | 34 | 13 | 0.9 | 0.3 | 0.09 | 0.15 | 0.07 | h1A11.9 (antibody, V domains shown, humanized IgG; also called VH.1b/VL.1 1A11) VH: EVQLVESGGGLVQPGGSLRLSCAASGFTFSNFPMAWVRQAPGKGLEWVATISSSDGTTYYRDSVKGRFTISRDNAKNSLYLQMNSLRAEDTAVYYCSRGYYNSPFAYWGQGTLVTVSS VL: DIQMTQSPSSLSASVGDRVTITCRASEDIYSNLAWYQQKPGKAPKLLIYDTNNLADGVPSRFSGSGSGTDFTLTISSLQPEDFATYYCQQYNNYPPTFGQGTKLEIKR | –
6 | 1.45 | 0.15 | 3.74 | 31 | 11.3 | 0.8 | 0.4 | 0.1 | 0.13 | 0.08 | h1A11.6 (antibody, V domains shown, humanized IgG; also called VH.1a/VL.1a 1A11) VH: EVQLVESGGGLVQPGGSLRLSCAASGFTFSNFPMAWVRQAPGKGLEWVATISSSDGTTYYRDSVKGRFTISRDNAKSSLYLQMNSLRAEDTAVYYCSRGYYNSPFAYWGQGTLVTVSS VL: DIQMTQSPSSLSASVGDRVTITCRASEDIYSNLAWYQQKPGKSPKLLIFDTNNLADGVPSRFSGSGSGTDSTLTISSLQPEDFATYFCQQYNNYPPTFGQGTKLEIKR | –
